We go through three molecules from US20200299367A1 (ARIZONA BOARD OF REGENTS ON BEHALF OF ARIZONA STATE …, published 2020).

This assay deals with T1, bovine serum albumin (bovine, UniProt P02769 25-607).
T1 construct: also called BSA
The assay can be described thus: AFM single clone screening, phage on mica coated with antigen.

T1 sequence (P02769 25-607 limits assumed): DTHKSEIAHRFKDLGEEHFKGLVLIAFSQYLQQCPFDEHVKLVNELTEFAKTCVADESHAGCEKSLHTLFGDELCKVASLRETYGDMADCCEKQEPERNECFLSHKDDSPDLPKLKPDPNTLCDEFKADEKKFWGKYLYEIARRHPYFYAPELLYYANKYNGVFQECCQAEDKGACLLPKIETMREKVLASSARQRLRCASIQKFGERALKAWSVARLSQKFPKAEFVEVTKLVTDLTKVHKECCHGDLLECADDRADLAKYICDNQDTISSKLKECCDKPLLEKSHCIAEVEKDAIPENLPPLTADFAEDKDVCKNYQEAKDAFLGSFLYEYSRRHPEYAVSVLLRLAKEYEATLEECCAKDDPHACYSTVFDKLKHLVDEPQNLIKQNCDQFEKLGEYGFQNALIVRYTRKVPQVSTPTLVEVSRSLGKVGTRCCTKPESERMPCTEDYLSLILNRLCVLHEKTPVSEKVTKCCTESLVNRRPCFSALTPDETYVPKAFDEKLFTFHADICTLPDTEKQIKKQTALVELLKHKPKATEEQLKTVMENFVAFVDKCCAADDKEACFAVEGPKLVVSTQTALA

B1: F9T scFv (scFv)
scFv: QVQLQESGGGVVQPGRSLRLSCAASGFTFSTSGMHWVRQAPGKGLEWVAFILHDGSDKYYADSVKGRFTISRDNSKNTLYLQMNSLRAEDTAIYYCAKSQRELLGAEYLQNWGQGTLVTVSSGGGGSGGGGSGGGGSQSALTQPASVSGSPGQSITISCTGTSSDVGGYKYVSWYQQHPGKAPKVMIYDVSNRPSGVSNRFSGSKSGNTASLTISGLQAEDEADYYCSSYTSSSTLVFGGGTKVTVLGAAAHHHHHHGAAEQKLISEED
notes: Expressed from pIT2 with a hexahistidine tag and a c-myc tag; the format is named under assay; also called F9T nanobody; F9 (clone before frame-shift repair)
B1: the binding result is reported as “no binding”.

B2: G12C scFv (scFv)
scFv: RVQLVESGAEVTKPGASVRVSCKASGYTFSRYDINWVRQASGQGLEWMGWINPNSGNTGYAQKFQGRVTMTRNISITTAYMELSSLRSEDTAVYYCARGLPEFDPWGQGTLVTVSSGGGGSGGGGSGGGGSHVILTQDPAVSVALGQTVRITCQGDSLRSYYASWYQQKPGQAPVLVIYGKNNRPSGIPDRFSGSSSGNTASLTITGAQAEDEADFYCNSRDSSGTHLEVFGGGTKVTVLGAAAEQKLISEEDLNGAA
notes: also called G12 (clone before frame-shift repair)
For the molecule B2, the binding result was “no binding”.

B3: D4G scFv (scFv)
scFv: QVQLVASGGDLIQPGGSLRLSCAASGFTFNNYWMTWVRQAPGKGLEWVANIKQDGGEKYYVDSVKGRFTISRDNAKTSLYLQMNSLRAEDTAVYYCAKESYSTGWFDHWGQGTLVTVSSGGGGSGGGGSGGGGSNFMLTQDPAVSVALGQTVRITCQGDSLRKYYTSWYQQKPGQAPLLVMYAKNNRPSGIPDRFSGSSSGNTASLTITGAQAEDEADYYCDSRDSSGDHWVFGGGTKLTVLGAAAEQKLISEEDLNGAA
notes: also called D4 (clone before frame-shift repair)
With B3, the binding result is recorded as “no binding”.
